Test results: US10562947B2, “Compositions and methods for preventing or treating diseases, conditions or processes characterized by aberrant fibroblast proliferation and extracellular matrix deposition” (MOERAE MATRIX, INC., priority 2011, dated 2020)

Key:
Experiment in all cases: Kinase Profiling Assay
Assay type in all cases: biochemical
Details in all cases: 100 μM peptide
EphB1(h) = molecular target: T1, EphB1(h) (Homo sapiens, UniProt P54762)
T1 sequence (P54762 18-984): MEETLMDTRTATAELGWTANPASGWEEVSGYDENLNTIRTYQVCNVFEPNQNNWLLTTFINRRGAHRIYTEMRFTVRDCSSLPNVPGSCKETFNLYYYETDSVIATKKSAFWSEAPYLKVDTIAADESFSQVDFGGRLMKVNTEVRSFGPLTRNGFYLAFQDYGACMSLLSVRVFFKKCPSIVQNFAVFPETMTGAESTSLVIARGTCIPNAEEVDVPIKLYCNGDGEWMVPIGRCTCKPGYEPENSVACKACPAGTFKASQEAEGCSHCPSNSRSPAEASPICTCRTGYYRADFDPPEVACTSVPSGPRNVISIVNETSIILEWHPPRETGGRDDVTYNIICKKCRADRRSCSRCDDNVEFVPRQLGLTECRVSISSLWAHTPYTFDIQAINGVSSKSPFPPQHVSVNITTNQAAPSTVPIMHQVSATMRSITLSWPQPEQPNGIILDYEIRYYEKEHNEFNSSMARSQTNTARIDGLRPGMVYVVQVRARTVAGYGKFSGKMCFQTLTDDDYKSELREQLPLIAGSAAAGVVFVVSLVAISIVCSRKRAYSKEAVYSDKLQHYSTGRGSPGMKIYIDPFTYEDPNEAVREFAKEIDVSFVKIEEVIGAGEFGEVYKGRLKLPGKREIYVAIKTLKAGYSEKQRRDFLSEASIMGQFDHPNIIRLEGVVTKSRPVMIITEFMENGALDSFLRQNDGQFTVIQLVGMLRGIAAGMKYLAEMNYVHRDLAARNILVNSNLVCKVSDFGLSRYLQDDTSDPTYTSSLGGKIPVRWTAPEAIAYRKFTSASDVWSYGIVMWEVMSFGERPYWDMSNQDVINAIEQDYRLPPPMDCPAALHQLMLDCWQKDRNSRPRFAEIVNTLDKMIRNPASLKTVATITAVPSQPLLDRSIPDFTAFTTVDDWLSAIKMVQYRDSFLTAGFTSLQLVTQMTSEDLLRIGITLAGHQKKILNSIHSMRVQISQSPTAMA
How it was run: (§1)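 Selectivity profiling: MK2-targeting peptides tested on 266 human kinases. All activity determinations done in duplicate.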

Fes(h) = Fes(h) (Homo sapiens, UniProt P07332)
How it was run: as §1

LKB1(h) = molecular target: T2, LKB1(h) (Homo sapiens, UniProt Q15831)
T2 sequence (Q15831 1-433): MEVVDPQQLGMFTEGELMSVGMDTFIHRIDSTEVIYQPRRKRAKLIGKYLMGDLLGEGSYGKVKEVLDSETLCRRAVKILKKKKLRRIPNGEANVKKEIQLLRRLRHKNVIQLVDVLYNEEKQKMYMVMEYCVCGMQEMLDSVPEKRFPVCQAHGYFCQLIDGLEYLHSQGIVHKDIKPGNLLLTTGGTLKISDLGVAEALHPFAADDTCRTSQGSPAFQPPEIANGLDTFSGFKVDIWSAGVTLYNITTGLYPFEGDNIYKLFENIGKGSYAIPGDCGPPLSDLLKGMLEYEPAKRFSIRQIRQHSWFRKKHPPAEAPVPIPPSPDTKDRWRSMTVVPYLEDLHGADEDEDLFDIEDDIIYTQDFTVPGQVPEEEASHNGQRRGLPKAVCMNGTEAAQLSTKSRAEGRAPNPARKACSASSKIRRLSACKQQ
T2 sequence (Q7RTN6 1-431 partner): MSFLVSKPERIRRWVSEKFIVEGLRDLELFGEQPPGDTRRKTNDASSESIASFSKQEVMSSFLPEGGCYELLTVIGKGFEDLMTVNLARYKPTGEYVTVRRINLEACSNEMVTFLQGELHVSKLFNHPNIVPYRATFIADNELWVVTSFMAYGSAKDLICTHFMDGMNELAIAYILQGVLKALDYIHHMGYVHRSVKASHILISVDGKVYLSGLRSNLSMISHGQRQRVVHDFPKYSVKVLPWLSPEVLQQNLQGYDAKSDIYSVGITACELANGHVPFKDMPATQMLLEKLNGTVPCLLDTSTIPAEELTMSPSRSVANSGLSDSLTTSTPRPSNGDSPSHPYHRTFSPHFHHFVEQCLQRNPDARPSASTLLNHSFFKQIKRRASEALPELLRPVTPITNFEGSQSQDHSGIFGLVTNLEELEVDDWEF
T2 sequence (Q9Y376 1-341 partner): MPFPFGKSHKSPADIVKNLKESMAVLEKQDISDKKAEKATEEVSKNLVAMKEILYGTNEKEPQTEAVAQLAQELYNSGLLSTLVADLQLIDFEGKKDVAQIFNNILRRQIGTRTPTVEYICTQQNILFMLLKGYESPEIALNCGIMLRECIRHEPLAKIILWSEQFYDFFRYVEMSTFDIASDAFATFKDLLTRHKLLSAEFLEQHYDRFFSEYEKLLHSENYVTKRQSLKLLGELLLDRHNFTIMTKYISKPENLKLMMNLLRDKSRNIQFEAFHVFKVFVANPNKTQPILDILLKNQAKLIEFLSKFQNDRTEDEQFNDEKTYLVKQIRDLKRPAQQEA
How it was run: as §1

MARK1(h) = MARK1(h) (Homo sapiens, UniProt Q9P0L2)
How it was run: as §1

MSK1(h) = MSK1(h) (Homo sapiens, UniProt O75582)
How it was run: as §1

Fes(h), sequence (P07332 whole entry): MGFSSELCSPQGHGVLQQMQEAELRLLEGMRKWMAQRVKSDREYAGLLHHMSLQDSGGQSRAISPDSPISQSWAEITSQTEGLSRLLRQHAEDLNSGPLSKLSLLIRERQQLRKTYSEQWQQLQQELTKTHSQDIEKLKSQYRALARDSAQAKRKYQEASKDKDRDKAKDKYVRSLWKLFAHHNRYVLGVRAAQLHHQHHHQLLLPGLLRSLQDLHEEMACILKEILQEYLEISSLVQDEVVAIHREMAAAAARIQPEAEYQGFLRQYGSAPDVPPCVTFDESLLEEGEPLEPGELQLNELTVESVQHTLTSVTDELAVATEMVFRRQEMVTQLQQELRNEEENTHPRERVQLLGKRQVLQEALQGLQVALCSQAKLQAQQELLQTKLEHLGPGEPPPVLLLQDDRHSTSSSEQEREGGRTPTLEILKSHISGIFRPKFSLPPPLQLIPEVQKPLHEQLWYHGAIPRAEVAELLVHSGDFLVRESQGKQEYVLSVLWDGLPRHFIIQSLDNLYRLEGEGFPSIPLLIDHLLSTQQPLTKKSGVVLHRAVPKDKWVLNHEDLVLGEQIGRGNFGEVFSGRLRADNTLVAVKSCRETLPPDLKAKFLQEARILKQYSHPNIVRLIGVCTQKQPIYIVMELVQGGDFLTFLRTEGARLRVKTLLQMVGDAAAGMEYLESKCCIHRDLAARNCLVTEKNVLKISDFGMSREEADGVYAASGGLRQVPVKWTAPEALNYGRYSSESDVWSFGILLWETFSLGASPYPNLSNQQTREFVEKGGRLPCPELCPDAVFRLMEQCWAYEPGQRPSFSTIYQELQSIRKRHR
MSK1(h), sequence (O75582 whole entry): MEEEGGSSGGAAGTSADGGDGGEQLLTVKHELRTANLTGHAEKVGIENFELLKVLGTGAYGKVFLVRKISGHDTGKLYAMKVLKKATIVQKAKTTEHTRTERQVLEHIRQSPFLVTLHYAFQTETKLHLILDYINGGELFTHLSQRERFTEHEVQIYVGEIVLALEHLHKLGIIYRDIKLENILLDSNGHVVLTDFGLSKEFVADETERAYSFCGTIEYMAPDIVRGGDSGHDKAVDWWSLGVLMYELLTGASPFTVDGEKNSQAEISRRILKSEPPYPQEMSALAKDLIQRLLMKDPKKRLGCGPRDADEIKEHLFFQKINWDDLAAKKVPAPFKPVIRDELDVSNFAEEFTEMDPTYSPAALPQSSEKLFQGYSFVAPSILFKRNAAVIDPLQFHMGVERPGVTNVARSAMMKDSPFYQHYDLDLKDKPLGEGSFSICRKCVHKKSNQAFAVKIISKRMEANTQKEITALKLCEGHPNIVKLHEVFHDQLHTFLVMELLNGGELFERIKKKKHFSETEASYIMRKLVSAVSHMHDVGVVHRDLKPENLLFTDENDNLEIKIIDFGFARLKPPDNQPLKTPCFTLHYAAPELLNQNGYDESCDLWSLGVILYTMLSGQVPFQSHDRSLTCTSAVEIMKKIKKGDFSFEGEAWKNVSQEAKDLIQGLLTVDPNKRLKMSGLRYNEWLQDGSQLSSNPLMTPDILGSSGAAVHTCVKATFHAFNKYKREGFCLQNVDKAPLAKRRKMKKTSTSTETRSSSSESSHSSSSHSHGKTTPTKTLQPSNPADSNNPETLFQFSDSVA
MARK1(h), sequence (Q9P0L2 whole entry): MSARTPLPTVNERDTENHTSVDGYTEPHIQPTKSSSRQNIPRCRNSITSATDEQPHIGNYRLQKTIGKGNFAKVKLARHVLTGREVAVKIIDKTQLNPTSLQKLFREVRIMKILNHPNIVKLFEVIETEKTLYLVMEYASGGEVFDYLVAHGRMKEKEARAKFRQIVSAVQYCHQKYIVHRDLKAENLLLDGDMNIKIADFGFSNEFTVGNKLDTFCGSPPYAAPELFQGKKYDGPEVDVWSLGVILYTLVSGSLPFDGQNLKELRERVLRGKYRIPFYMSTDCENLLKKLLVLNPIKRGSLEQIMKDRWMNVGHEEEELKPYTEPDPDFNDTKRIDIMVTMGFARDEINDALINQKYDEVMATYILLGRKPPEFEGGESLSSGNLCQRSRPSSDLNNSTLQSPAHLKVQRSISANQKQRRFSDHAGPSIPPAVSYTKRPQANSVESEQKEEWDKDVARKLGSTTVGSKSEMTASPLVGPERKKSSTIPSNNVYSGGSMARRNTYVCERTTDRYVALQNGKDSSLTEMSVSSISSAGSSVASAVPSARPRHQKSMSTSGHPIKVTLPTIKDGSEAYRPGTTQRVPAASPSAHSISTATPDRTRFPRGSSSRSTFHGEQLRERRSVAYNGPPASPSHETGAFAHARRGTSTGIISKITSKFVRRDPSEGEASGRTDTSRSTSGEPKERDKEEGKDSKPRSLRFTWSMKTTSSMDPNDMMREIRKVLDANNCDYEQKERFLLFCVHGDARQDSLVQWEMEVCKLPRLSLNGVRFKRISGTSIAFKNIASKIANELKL

Sequence | EphB1(h) % activity (EphB1(h)) [%] | Fes(h) % activity (Fes(h)) [%] | LKB1(h) % activity (LKB1(h)) [%] | MARK1(h) % activity (MARK1(h)) [%] | MSK1(h) % activity (MSK1(h)) [%]
FAKLAARLYRKALARQLGVAA [MMI-0300] | 44 | 20 | 101 | 132 | 32
KAFAKLAARLYRKALARQLGVAA [MMI-0400] | 58 | 16 | 89 | 120 | 28
YARAAARQARAKALNRQLGVA (Mammalian) [MMI-0200] | 95 | 74 | 99 |  | 50
HRRIKAWLKKIKALARQLGVAA (Mammalian) [MMI-0500] | 37 | 23 | 51 | 110 | 8
